Experimental findings from patent US20030186334A1, “KTS-disintegrins” (Temple University - Of the Commonwealth System of Higher …, priority 2001, published 2003) are described below.

For test [1], the system named is dermal microvascular endothelial cells (EC). Briefly: apoptosis by caspase-3 levels in dermal microvascular endothelial cells. In kind it is cell-based. Here is the method:
(§1) The mechanisms of the cancer-suppressing effect observed for obtustatin were investigated as follows. Dermal microvascular endothelial cells (EC) and human melanoma cells (MV3) were cultured and exposed to TNF-α, vincristine and obtustatin. (TNF-α and vincristine are compounds which induce cell death by apoptosis in both normal and cancerous cells.) Control cells received only vehicle. The extent of apoptosis was measured by determining caspase-3 levels.

Test [2] deals with human melanoma cells (MV3). Briefly: apoptosis by caspase-3 levels in melanoma MV3 cells. It counts as cell-based. How it is done: as §1
For test [3], the target named is T1, α1β1 integrin (Homo sapiens, UniProt P05556+P56199).
T1 construct: expressed in transfected cells; host or cells: α1K562 cells
Briefly: adhesion of α1K562 cells to immobilized collagen IV. In kind it is cell-based. The note with it: for IC50: α1K562 cells, α1β1, collagen IV. How it is done: Collagen IV (0.2 μg/well) in 0.02 M acetic acid was immobilized by incubation overnight at 4° C. on a 96-well plate. Plates were then blocked with 1% (w/v) BSA (bovine serum albumin) in Hank's Balanced Salt Solution (HBSS) containing 3 mM Mg^2+ at room temperature for 1-2 hours to prevent cells from non-specifically binding to the plates. α1K562 cells were labeled by incubation with 12.5 μM 5-chloromethylfluorescein diacetete (CMFDA) in HBSS for 15 minutes at 37° C. CMFDA labeled α1K562 cells were then pelleted, washed and resuspended in HBSS buffer containing 3 mM Mg^2+ and 1% BSA. […] The plates were washed three times with HBSS containing 3 mM Mg^2+ and 1% (w/v) BSA to remove unbound cells. Bound cells were lysed using 0.5% (v/v) Triton X-100 in H2O. Fluorescent CMFDA released by lysis of adherent cells in a given well was read using a Cytofluor 2350 fluorescence plate reader.
(§2) Adhesive ligands for the selected integrins consisted of collagen IV (0.2 μg/well), collagen I, fibronectin, or vascular cell adhesion molecule-1 (VCAM-1). Adhesive ligands in 0.02 M acetic acid were immobilized overnight at 4° C. on a 96-well plate. Plates were then blocked with 1% (w/v) BSA (bovine serum albumin) in Hank's Balanced Salt Solution (HBSS) containing 3 mM Mg^2+ at room temperature for 1-2 hours to prevent cells from non-specifically binding to the plates. α1K562, α2K562, K562, A5, and Jurkat cells expressing the α1β1, α2β1, α5β1, αIIbβ3, and α4β1 integrins respectively were labeled by incubation with 12.5 μM 5-chloromethylfluorescein diacetate (CMFDA) in HBSS for 15 minutes at 37° C. CMFDA labeled cells were then pelleted, washed and resuspended in HBSS buffer containing 3 mM Mg^2+ and 1% (w/v) BSA. […] Plates were then incubated at 37° C. for 30 minutes as indicated in Table 5 and washed three times with HBSS containing 3 mM Mg^2+ and 1% (w/v) BSA to remove unbound cells. Bound cells were lysed using 0.5% (v/v) Triton X-100 in H2O. Fluorescent CMFDA released by lysis of adherent cells in a given well was read using a Cytofluor 2350 fluorescence plate reader.
(§3) The effect of obtustatin, viperisrastatin, echistatin, and eristostatin on the binding of selected integrins to their adhesive ligands was evaluated using the cell adhesion assay described in Example 6. The integrin-expressing cells, integrins and corresponding adhesive ligands, and the results of the cell adhesion assay are shown in Table 6.

The target in test [4] is T1, α1β1 integrin. Briefly: adhesion of HS.939T cells to collagen IV. It counts as cell-based. The note with it: α1β1, Coll IV.
Test [5] addresses T2, α6β1 integrin (Homo sapiens, UniProt P05556+P23229).
T2 construct: expressed in transfected cells; host or cells: α6K562 cells
Description: adhesion of α6K562 cells to laminin. The following applies: α6β1, LM. It counts as cell-based.

Test [6] concerns the target T3, α9β1 integrin (Homo sapiens, UniProt P05556+Q13797).
T3 construct: expressed in transfected cells; host or cells: SW480α9 cells
Description: adhesion of SW480α9 cells to VCAM-1. It counts as cell-based. The note with it: α9β1, VCAM-1.

Test [7] has as its target T1, α1β1 integrin. Briefly: adhesion of α1K562 cells to collagen I. The following applies: α1β1, Coll I. In kind it is cell-based. Here is the method: as §2, §3
Test [8] has as its target T4, α4β1 integrin (Homo sapiens, UniProt P05556+P13612).
T4 construct: endogenous in cells; host or cells: Jurkat cells
Description: adhesion of Jurkat cells to VCAM-1. It counts as cell-based. The following applies: α4β1, VCAM-1. Here is the method: as §2, §3

Test [9] deals with T5, α5β1 integrin (Homo sapiens, UniProt P05556+P08648).
T5 construct: endogenous in cells; host or cells: K562 cells
Briefly: adhesion of K562 cells to fibronectin. It counts as cell-based. Here is the method:
as §2, §3

For test [10], the target named is T6, αIIbβ3 integrin (Homo sapiens, UniProt P05106+P08514).
T6 construct: expressed in transfected cells; host or cells: A5 cells
Briefly: adhesion of A5 cells to fibrinogen. It counts as cell-based. How it is done: as §2, §3

The target of test [11] is T7, α1β1 integrin (Mus musculus, UniProt P09055+Q3V3R4).
T7 construct: endogenous in cells; host or cells: B16F10 cells
Description: adhesion of B16F10 cells to collagen IV. In kind it is cell-based. The following applies: for IC50: α1β1, Coll IV.

Test [12] has as its target T8, αvβ3 integrin (Homo sapiens, UniProt P05106+P06756).
T8 construct: endogenous in cells; host or cells: JY cells
Briefly: adhesion of JY cells to vitronectin. It counts as cell-based. The note with it: αvβ3, VN.

Test [13] concerns Lewis lung carcinoma. Briefly: Lewis lung carcinoma growth in syngeneic mouse model. It counts as in vivo, C57BL/6 mice. The following applies: 5 mg/kg intraperitoneally once daily for eight days. How it is done:
Lewis lung carcinoma cells (1×10^6) were injected under the skin of the C57BL/6 mice (Tacoma Inc., Germantown, N.Y.), and tumors were allowed to grow for one week. The average tumor size after one week of growth was approximately 0.08 cm^3. The one-week time-point was called “day 0.” Two treatment groups of four mice each were injected intraperitoneally once daily with either 5 mg/kg obtustatin or 5 mg/kg echistatin beginning on day 0 for a total of eight days. A control group of four mice received only PBS. Tumor volume was measured daily using the formula length×width^2×0.52.

Test [14] concerns the target α2β1 integrin (Homo sapiens, UniProt P05556+P17301). Description: adhesion of α2K562 cells to collagen I. It counts as cell-based. Details: expressed in transfected cells; host or cells: α2K562 cells. Here is the method: as §2, §3
For test [15], the system named is angiogenesis. Description: Japanese quail chorioallantoic membrane (CAM) angiogenesis assay. The following applies: 20 μg and 50 μg, in words. It counts as in vivo. Here is the method: The disintegrins obtustatin and eristostatin were evaluated for their effect on angiogenesis via a Japanese quail chorioallantoic membrane (CAM) assay, as is known in the art (see, for example, Parsons-Wingerter P et al., “A Novel Assay of Angiogenesis in the Quail Chorioallantoic Membrane: Stimulation by bFGF and Inhibition by Angiostatin According to Fractal Dimension and Grid Intersection.” Microvascular Research 55(3):201-214, 1998, the disclosure of which is herein incorporated by reference).

T3 sequence (Q13797 30-1035): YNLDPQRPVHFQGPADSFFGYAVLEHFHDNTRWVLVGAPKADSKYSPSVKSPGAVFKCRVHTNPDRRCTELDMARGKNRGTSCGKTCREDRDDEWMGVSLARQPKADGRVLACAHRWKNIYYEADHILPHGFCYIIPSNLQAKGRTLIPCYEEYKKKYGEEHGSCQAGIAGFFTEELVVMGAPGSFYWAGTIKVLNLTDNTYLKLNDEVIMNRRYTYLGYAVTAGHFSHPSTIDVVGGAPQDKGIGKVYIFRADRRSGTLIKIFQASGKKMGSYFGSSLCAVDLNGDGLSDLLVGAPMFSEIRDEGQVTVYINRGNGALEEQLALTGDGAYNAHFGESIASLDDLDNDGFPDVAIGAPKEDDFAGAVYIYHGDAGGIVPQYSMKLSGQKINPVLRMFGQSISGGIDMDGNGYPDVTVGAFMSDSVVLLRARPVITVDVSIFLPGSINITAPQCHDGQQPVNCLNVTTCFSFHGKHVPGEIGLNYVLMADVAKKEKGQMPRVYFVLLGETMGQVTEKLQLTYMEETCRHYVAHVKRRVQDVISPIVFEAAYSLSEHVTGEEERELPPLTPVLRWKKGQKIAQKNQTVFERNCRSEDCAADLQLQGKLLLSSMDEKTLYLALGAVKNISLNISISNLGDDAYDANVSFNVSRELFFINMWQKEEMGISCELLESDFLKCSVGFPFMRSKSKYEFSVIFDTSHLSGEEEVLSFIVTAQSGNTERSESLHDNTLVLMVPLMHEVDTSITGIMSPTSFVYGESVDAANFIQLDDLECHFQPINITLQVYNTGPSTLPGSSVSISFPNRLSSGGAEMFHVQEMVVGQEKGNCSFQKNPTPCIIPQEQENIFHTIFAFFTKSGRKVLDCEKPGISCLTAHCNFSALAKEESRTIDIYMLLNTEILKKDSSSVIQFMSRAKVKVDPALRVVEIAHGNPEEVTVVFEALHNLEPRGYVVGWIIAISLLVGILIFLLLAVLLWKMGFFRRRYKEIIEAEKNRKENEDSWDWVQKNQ
T3 sequence (P05556 21-798): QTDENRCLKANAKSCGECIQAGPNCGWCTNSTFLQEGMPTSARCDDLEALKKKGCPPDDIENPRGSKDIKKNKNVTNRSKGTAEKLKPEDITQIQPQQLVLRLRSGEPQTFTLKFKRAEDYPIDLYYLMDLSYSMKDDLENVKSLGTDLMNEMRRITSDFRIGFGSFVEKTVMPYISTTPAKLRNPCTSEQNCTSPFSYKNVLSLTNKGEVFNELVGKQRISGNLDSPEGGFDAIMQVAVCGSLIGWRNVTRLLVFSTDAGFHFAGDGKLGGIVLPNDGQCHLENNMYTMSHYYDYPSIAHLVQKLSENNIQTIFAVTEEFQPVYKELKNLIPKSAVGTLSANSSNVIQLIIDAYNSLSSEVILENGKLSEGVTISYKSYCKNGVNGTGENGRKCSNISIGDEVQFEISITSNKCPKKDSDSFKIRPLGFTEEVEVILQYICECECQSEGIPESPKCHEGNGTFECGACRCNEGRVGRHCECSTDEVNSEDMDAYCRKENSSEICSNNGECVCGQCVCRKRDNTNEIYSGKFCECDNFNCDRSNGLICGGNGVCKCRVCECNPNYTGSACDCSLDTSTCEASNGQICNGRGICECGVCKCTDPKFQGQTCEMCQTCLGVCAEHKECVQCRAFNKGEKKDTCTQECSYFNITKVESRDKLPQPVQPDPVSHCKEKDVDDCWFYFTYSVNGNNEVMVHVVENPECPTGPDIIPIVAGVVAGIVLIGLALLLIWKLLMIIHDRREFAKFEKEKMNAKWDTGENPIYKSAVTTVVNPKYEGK
T8 sequence (P06756 31-889 limits assumed): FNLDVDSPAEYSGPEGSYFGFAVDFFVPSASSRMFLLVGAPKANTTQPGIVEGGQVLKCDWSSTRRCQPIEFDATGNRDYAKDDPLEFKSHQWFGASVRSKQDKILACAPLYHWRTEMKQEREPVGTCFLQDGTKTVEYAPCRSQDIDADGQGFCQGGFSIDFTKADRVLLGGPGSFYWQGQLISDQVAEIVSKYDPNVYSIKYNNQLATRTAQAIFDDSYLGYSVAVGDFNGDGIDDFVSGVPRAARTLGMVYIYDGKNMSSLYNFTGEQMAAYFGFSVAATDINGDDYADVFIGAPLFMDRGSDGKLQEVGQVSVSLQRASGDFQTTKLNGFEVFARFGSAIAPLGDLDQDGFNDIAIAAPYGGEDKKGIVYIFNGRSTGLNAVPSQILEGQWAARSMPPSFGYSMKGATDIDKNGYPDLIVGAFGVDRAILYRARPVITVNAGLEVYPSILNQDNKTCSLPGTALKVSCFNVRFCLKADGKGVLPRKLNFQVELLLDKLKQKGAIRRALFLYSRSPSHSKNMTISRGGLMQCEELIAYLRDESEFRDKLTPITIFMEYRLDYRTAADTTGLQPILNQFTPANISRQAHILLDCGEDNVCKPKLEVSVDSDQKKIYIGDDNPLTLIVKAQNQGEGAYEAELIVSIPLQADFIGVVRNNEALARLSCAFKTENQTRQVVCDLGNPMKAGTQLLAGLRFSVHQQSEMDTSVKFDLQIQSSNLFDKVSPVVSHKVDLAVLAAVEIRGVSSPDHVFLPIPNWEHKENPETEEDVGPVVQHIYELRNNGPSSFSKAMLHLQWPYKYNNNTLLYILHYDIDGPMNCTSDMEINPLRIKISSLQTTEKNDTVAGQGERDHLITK
T8 sequence (P06756 891-1048 partner limits assumed): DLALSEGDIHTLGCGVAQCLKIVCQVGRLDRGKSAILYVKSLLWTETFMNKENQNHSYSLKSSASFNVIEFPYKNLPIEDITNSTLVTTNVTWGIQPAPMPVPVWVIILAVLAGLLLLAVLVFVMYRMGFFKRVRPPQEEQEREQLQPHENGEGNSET
T8 sequence (P05106 27-788): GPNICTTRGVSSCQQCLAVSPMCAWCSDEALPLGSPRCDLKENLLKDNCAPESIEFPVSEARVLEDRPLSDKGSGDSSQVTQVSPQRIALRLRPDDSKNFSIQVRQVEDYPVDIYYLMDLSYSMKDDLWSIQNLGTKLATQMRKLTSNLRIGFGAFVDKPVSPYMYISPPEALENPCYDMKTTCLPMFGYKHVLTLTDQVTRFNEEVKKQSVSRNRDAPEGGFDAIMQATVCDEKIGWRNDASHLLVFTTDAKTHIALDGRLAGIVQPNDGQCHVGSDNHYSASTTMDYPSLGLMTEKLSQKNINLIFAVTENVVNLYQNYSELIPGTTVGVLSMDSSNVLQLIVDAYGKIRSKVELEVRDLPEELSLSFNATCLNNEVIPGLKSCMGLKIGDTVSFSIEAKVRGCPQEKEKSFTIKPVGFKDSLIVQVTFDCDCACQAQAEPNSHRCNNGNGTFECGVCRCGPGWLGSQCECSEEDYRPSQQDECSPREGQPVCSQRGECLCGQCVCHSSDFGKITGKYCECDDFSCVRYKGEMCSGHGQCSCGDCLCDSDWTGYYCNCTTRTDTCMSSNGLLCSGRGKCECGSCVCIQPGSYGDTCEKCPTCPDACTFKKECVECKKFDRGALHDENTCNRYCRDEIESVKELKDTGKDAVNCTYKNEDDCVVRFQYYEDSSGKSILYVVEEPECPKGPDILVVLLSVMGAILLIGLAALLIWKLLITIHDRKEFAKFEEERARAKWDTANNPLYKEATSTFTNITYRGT
T2 sequence (P23229 24-938 limits assumed): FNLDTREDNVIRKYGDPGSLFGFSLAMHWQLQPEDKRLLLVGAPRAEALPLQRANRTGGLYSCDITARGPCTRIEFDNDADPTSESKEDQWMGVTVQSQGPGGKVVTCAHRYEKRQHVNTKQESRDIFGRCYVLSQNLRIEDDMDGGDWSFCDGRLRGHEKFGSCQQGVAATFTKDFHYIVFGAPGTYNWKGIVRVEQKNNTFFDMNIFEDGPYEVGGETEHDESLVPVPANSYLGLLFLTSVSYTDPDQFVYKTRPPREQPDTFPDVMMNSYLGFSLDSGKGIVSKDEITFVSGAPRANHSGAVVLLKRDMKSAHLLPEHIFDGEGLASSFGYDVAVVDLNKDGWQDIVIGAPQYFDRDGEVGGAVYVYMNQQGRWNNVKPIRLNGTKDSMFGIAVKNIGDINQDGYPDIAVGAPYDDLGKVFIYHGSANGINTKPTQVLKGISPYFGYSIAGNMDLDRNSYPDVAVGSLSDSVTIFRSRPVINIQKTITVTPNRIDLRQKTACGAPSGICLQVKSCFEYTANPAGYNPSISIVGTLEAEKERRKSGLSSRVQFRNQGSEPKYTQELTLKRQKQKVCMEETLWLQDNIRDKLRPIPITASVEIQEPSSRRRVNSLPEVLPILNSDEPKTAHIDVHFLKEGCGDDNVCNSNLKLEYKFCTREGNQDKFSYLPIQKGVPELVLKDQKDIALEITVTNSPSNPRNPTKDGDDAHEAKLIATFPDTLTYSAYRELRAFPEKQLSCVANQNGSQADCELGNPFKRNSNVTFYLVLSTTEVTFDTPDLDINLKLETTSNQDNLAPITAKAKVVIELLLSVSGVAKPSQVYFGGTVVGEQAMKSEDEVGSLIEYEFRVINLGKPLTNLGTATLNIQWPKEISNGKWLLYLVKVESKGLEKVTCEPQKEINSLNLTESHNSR
T2 sequence (P23229 942-1130 partner limits assumed): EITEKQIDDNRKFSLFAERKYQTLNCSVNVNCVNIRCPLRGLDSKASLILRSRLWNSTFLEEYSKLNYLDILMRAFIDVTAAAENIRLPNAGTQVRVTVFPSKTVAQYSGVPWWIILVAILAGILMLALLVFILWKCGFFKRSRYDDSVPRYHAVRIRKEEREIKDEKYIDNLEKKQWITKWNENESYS
T2 sequence (P05556 21-798): as the sequence (P05556 21-798) above

For `CC[C@]1(O)C[C@H]2CN(CCc3c([nH]c4ccccc34)[C@@](C(=O)OC)(c3cc4c(cc3OC)N(C=O)[C@H]3[C@@](O)(C(=O)OC)[C@H](OC(C)=O)[C@]5(CC)C=CCN6CC[C@]43[C@@H]65)C2)C1` [vincristine], the “apoptosis (caspase-3)” value in test [1] and in test [2] was “induced apoptosis” each time.

On to CKLKPAGTTC (obtustatin fragment), for which the “inhibition of α1β1 integrin-mediated adhesion of α1K562 cells to collagen IV” value in [3] (in words) was “did not appreciably inhibit”.

Take “Echistatin: short RGD-containing disintegrin (QCESGPCCRNCKFLKEGTICKRARGDDMDDYCNGKTCDCPRNPHKGPAT) [reference compound]”: the IC50 in [4], in test [3], in [5], in test [6], in [7] and in test [8] was > 10 µM each time. The IC50 in [9] is 0.05 µM; in test [10], 0.05 µM; in test [11], > 10 µM; in test [12] it was 0.0001 µM; in [14], > 10 µM. The “inhibition of tumor development (tumor volume)” value in test [13] is “no effect”.

Regarding “Eristostatin: short disintegrin compared with obtustatin (QEEPCATGPCCRRCKFKRAGKVCRVARGDWNDDYCTGKSCDCPKNPWNG) [reference compound]”, the IC50 in [4], in test [3], in test [5], in test [6], in [7] and in test [8] was > 10 µM in each case. The IC50 is > 10 µM in test [9], > 10 µM in [11], 2 µM in test [12] and > 10 µM in [14]. Besides, the “effect on angiogenesis (fractal dimension)” value in test [15] is given as “no affect”.

Regarding TNF-α, the “apoptosis (caspase-3)” value in test [1] and in test [2] was “induced apoptosis” throughout.

As to “Viperisrastatin (CTTGPCCRQCKLKPAGTTCWKTSRTSHYCTGKSCDCPVYQG)”, the IC50 in test [4] was 2e-06 µM; in test [3] it was 8e-05 µM; in test [5] it was > 10 µM; in [6], > 10 µM; in test [7], 2e-05 µM; in [8], > 10 µM. In addition, the IC50 in [9] was > 10 µM; in [10], > 10 µM; in test [11] it was 0.00025 µM; in [12], > 10 µM; in [14], > 10 µM. The “activity relative to obtustatin, mouse α1β1 integrin” value in test [11] was “similar”.
